As usually defined, the Kd is the free concentration of one partner at which half of the binding sites on the other are occupied at equilibrium, for simple one-to-one binding.

Drawing on PMC5454376 (2017), this text covers Kd for 2 molecules.

One experiment concerns the target Human His-Gαi3 S252A (human, UniProt P08754 1-354, S252 mutated to A). Put plainly: FP.
The target of a further experiment is T1, Gαi3 L249V (Homo sapiens).
T1 chain: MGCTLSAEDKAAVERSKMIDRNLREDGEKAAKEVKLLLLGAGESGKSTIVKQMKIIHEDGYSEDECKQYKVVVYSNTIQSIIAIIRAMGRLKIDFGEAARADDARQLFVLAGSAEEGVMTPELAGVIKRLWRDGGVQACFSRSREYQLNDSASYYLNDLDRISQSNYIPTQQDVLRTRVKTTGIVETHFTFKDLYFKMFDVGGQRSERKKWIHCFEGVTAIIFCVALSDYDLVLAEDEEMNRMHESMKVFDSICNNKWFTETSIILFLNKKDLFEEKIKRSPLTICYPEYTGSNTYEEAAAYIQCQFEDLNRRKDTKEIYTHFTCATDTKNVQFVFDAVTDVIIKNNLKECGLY
In words: FP.

The target of a further experiment is Human His-Gαi3 S252D (human, UniProt P08754 1-354, S252D). Put plainly: FP.
A further experiment addresses Human His-Gαi3 W211A (human, UniProt P08754 1-354, W211A). In words: FP.
In experiment [1] the target is T2, Human His-Gαi3 WT (human, UniProt P08754 1-354).
T2 chain: T1 chain with V249L
Put plainly: FP.

The target of another experiment is Human His-Gαi3 L249H (human, UniProt P08754 1-354, L249H). Put plainly: FP.
For experiment [2], the target named is Human His-Gαi3 I184 mutant (human, UniProt P08754 1-354). Put plainly: FP.
Experiment [3] addresses Human His-Gαi3 L37 mutant (human, UniProt P08754 1-354). Put plainly: FP.
Experiment [4] concerns the target Human His-Gαi3 L36 mutant (human, UniProt P08754 1-354). In words: FP.
The target of experiment [5] is Human His-Gαi3 K257 mutant (human, UniProt P08754 1-354). Put plainly: FP.
Experiment [6] concerns the target Human His-Gαi3 V218 mutant (human, UniProt P08754 1-354). In words: FP.
The target in experiment [7] is Human His-Gαi3 G42 mutant (human, UniProt P08754 1-354). In words: FP.
For experiment [8], the target named is Human His-Gαi3 L39 mutant (human, UniProt P08754 1-354). Put plainly: FP.
Experiment [9] concerns the target Human His-Gαi3 W258 mutant (human, UniProt P08754 1-354). Put plainly: FP.
The target of experiment [10] is Human His-Gαi3 F259 mutant (human, UniProt P08754 1-354). Put plainly: FP.
Experiment [11] deals with T3, Human His-Gαi3 ΔC9 (lacking the last nine residues) (human, UniProt P08754 1-345).
T3 chain: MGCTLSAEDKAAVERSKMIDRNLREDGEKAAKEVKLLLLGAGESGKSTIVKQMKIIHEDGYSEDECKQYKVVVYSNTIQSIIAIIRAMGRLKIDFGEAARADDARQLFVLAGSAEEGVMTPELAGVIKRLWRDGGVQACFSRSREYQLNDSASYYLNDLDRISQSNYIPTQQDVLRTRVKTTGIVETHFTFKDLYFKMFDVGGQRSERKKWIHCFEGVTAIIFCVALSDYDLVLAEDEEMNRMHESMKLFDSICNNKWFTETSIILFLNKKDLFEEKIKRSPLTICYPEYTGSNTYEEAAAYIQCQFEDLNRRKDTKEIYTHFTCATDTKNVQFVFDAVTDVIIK
In words: FP.

For experiment [12], the target named is T2, Human His-Gαi3 WT. In words: FP.
The target of experiment [13] is T4, Human His-Gαi3 K317 mutant (human, UniProt P08754 1-354). In words: FP; K317A.
A further experiment addresses Human His-Gαi3 N256A (human, UniProt P08754 1-354, N256 mutated to A). Put plainly: FP.
Experiment [14] deals with T5, Full-length human Gαi3, untagged (NMR sample) (human, UniProt P08754 1-354).
T5 chain: T1 chain with V249L
Put plainly: FP; His-tag cleaved Gαi3.

Experiment [15] concerns the target T4, Human His-Gαi3 K317 mutant. Put plainly: FP; K317W.
Experiment [16] deals with Human His-Gαi3 R313 mutant (human, UniProt P08754 1-354). Put plainly: FP.
Experiment [17] has as its target T2, Human His-Gαi3 WT. Put plainly: FP.

Changes are numbered by the printed parent chain. Read-outs that look alike come from different tables or passages of the source. Where no end group is shown, it is not given here.

B1: Fluorescein-labelled RGS12 GoLoco peptide (residues 1,185–1,221) (peptide)
peptide: DEAEEFFELISKAQSNRADDQRGLLRKEDLVLPEFLR
modifications: not fully specified (N-terminus); also: 5,6-carboxyfluorescein coupled to resin-bound peptide after elongation, site not given here
For B1, the Kd in the experiment with Human His-Gαi3 S252A worked out at 35 nM; with Gαi3 L249V it was 84 nM; in the experiment with Human His-Gαi3 S252D, 336 nM; in the experiment with Human His-Gαi3 W211A, 61 nM; with Human His-Gαi3 WT [1], 54 nM; with Human His-Gαi3 L249H it was 266 nM. Moreover, the dissociation constant Kd in experiment [2] stood at 83 nM; in [3] it was 80 nM; in experiment [4], 119 nM; in [5] it was 86 nM; in experiment [6], 104 nM; in experiment [7] it was 98 nM. In addition, the Kd worked out at 176 nM in experiment [8], 63 nM in experiment [9] and 187 nM in experiment [10].

B2: Fluorescein-labelled GIV peptide (residues 1,671–1,701) (peptide)
peptide: KTGSPGSEVVTLQQFLEESNKLTSVQIKSSS
modifications: not fully specified (N-terminus); also: 5,6-carboxyfluorescein coupled to resin-bound peptide after elongation, site not given here
In the case of B2, the dissociation constant Kd in experiment [11] was 700 nM; in the experiment with Human His-Gαi3 WT [12] it was 580 nM; in [13] it was 590 nM; with Gαi3 L249V, 1370 nM; with Human His-Gαi3 N256A it was 1040 nM; with Human His-Gαi3 S252D, 3090 nM. Also, the Kd with Human His-Gαi3 WT [1] was 581 nM; in the experiment with Human His-Gαi3 L249H, 4410 nM; in experiment [14], 680 nM; in [15], 510 nM; in experiment [16] it was 800 nM; in the experiment with Human His-Gαi3 WT [17], 580 nM. The Kd was found to be 1910 nM in experiment [2]; 478 nM in experiment [3]; 706 nM in [4]; 870 nM in [5]; 362 nM in experiment [6]; 377 nM in experiment [7]. Further, the figures for the Kd in experiment [8], in experiment [9] and in experiment [10] were 3080 nM, 1820 nM and 1260 nM, respectively.
